Laboratory results: PMC5758712

Experiments:
[1] = target: UbcH5B (Homo sapiens) (UniProt P62837); settings: cited from earlier work
[2] = target: UbcH5A-Ub (UniProt P51668); test: ITC; E2 or E2~Ub in the cell at 25–30 μM, RBR in the syringe at 250–300 μM; 293 K; 25 mM Hepes pH 7.5, 150 mM NaCl, 0.5 mM TCEP; 1:1 binding model
[3] = target: UbcH7 (UniProt P68036); test: as above
[4] = target: UbcH7-Ub (UniProt P68036); test: as above

HOIP-Ring1, sequence (Q96EP0 whole entry, the tested form may be a part): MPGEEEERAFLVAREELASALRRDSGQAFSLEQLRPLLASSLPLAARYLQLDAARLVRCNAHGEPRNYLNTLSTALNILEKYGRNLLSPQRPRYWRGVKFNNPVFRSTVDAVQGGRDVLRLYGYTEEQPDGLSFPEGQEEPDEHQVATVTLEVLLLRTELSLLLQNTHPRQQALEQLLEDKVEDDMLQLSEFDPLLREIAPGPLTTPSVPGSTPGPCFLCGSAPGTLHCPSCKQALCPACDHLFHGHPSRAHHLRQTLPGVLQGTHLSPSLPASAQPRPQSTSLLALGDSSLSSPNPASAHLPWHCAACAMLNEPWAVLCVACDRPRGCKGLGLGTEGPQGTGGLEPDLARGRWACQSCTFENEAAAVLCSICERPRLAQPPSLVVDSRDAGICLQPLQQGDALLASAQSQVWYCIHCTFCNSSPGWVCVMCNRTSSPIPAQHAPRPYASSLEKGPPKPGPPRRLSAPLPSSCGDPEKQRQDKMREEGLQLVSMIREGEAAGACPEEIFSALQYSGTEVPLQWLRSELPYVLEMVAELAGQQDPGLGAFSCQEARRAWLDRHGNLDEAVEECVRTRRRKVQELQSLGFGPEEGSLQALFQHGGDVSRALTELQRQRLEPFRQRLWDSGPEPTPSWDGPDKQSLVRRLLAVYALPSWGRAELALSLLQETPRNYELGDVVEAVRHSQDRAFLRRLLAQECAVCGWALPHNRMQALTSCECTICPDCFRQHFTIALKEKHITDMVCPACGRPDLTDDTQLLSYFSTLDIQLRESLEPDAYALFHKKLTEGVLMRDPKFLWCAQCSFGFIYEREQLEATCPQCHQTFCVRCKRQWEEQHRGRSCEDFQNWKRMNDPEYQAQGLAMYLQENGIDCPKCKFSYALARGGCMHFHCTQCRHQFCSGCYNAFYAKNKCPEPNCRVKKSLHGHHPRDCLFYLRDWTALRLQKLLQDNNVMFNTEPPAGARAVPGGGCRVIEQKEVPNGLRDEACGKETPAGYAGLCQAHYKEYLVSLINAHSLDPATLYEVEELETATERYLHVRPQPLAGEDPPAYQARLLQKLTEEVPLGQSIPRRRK
HOIP-RBR, sequence (Q96EP0 whole entry, the tested form may be a part): as above
HHARI-Ring1, sequence (Q9Y4X5 whole entry, the tested form may be a part): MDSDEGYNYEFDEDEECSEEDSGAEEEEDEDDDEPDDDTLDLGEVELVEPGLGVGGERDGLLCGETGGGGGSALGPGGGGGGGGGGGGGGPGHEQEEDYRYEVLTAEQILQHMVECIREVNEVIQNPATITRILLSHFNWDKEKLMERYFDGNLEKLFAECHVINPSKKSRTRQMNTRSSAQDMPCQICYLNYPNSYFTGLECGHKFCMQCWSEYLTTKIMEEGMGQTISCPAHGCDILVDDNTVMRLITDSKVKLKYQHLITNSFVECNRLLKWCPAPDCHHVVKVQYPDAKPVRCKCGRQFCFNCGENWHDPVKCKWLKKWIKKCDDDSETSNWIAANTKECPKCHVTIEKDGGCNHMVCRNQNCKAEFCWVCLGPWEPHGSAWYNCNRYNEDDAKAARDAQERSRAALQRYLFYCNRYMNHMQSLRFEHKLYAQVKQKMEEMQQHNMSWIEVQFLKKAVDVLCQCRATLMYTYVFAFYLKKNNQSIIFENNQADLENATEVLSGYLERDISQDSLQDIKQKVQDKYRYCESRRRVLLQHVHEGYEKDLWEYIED
HHARI-RBR, sequence (Q9Y4X5 whole entry, the tested form may be a part): as above
RNF144A-Ring1, sequence (P50876 whole entry, the tested form may be a part): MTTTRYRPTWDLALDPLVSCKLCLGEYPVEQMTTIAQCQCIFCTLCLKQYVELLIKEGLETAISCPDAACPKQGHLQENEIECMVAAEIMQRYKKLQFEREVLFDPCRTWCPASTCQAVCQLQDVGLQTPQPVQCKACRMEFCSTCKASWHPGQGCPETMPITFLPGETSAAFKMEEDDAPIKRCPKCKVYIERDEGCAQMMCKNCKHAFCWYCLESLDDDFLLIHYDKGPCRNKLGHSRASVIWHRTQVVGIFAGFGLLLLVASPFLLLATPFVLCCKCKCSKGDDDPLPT
RNF144A-RBR, sequence (P50876 1-250): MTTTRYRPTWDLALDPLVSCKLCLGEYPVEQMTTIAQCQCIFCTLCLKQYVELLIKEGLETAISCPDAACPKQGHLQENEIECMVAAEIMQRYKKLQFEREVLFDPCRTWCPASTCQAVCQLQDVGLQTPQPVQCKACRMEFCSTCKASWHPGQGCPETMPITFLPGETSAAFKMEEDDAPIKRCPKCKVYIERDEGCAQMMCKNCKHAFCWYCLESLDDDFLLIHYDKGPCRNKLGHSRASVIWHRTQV
HHARI, sequence (Q9Y4X5 whole entry): as the sequence (Q9Y4X5 whole entry, the tested form may be a part) above
UbcH5B (Homo sapiens), sequence (P62837 whole entry): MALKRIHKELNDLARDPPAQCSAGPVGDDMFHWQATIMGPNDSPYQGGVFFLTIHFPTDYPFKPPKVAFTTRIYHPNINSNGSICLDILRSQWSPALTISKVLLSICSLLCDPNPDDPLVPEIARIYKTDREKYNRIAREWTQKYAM

| Substance | Kd [1] [µM] | Kd [2] [µM] | dH [2] [kJ/mol] | stoichiometry N [2] | Kd [3] [µM] | dH [3] [kJ/mol] | stoichiometry N [3] | Kd [4] [µM] | dH [4] [kJ/mol] | stoichiometry N [4] |
| --- | --- | --- | --- | --- | --- | --- | --- | --- | --- | --- |
| HHARI (from UniProt Q9Y4X5) | 20 | – | – | – | – | – | – | – | – | – |
| HHARI-RBR (from UniProt Q9Y4X5 1-557) (domain or fragment) | – | 4.5 | -15.5 | 0.8 | 0.41 | 7.53 | 0.9 | 0.2 | -9.62 | 0.9 |
| HHARI-Ring1 (from UniProt Q9Y4X5 1-557) (domain or fragment) | – | > 50 | – | – | 0.21 | 17.6 | 0.8 | 0.12 | 16.3 | 0.8 |
| HOIP-RBR (from UniProt Q96EP0 1-1072) (domain or fragment) | – | 4.3 | -34.3 | 0.9 | 2.3 | 3.35 | 0.8 | 0.9 | 3.35 | 0.9 |
| HOIP-Ring1 (from UniProt Q96EP0 1-1072) (domain or fragment) | – | > 50 | – | – | – | 5.86 | 1 | 4.3 | 4.6 | 0.9 |
| RNF144A-RBR (from UniProt P50876 1-250) (domain or fragment) | – | – | – | – | 1 | 7.11 | 0.9 | 0.52 | -3.77 | 0.8 |
| RNF144A-Ring1 (from UniProt P50876 1-292) (domain or fragment) | – | > 50 | – | – | 2.2 | 14.6 | 0.8 | 1 | 11.3 | 0.8 |
| TRIAD3A-RBR (from UniProt Q9NWF9-2 510-801) (domain or fragment) | – | – | – | – | – | – | – | 2.4 | 15.5 | 0.9 |
| TRIAD3A-Ring1 (from UniProt Q9NWF9-2 1-866) (domain or fragment) | – | > 50 | – | – | 3.2 | 18.8 | 0.8 | 4.3 | 15.1 | 0.8 |
